Measured values taken from PMC6555819, “Comprehensive study of nuclear receptor DNA binding provides a revised framework for understanding receptor specificity”.

What was measured:
[1] = target: VDR:RXRa (Homo sapiens, UniProt P11473;P19793 full;full); assay: no ligand; PBM; 270 nM : 90 nM RXRa; PBS pH 7.4, 2% milk, 0.02% Triton X-100, 1 mM DTT, BSA, 0.4 mg/ml salmon testes DNA; details: tags: His kept;His cleaved; copies: 1;1; label: surface-attached array probe
How it was run: (§1)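 Regression normalization was applied to scanned fluorescence from custom Agilent 4×180K protein-binding microarrays. Before scanning, arrays were incubated 1 h with ligand-free nuclear receptor dimers, and binding was detected with antibodies against each partner (one per run). Binding z-scores use the random background probes as reference.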

[2] = target: LXRb:RXRa (Homo sapiens, UniProt P55055;P19793 full;full); assay: as above; details: tags: His kept;His cleaved; copies: 1;1; label: surface-attached array probe
Sequence of LXRb:RXRa (P55055 whole entry, chain 1 of 2): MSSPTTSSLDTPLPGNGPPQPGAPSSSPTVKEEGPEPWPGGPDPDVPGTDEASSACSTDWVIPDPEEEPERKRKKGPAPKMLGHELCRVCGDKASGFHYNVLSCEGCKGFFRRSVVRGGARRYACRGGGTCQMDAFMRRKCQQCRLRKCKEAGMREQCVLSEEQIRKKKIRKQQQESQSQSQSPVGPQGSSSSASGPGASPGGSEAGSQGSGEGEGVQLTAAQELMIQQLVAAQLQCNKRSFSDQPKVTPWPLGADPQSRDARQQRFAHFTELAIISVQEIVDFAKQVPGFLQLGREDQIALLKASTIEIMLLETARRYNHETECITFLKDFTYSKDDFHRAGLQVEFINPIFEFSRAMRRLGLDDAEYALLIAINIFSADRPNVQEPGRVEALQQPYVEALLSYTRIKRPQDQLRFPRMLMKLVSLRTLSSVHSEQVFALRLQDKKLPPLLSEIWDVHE
Sequence of LXRb:RXRa (P19793 whole entry, chain 2 of 2): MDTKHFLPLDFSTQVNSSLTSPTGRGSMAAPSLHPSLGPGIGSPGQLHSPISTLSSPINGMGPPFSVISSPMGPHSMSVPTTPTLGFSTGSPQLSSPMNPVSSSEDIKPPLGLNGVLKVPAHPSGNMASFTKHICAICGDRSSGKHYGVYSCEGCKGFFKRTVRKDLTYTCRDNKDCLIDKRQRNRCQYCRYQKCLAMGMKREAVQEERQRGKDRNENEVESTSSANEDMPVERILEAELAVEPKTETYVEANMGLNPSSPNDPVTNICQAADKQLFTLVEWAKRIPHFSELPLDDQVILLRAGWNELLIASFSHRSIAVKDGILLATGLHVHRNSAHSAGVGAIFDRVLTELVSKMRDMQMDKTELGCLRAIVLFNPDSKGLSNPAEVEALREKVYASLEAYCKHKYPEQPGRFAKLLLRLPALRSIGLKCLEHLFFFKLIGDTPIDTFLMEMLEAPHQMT
How it was run: as §1

[3] = target: FXR:RXRa (Homo sapiens, UniProt Q96RI1;P19793 full;full); assay: as above; details: tags: His kept;His cleaved; copies: 1;1; label: surface-attached array probe
Sequence of FXR:RXRa (Q96RI1 whole entry, chain 1 of 2): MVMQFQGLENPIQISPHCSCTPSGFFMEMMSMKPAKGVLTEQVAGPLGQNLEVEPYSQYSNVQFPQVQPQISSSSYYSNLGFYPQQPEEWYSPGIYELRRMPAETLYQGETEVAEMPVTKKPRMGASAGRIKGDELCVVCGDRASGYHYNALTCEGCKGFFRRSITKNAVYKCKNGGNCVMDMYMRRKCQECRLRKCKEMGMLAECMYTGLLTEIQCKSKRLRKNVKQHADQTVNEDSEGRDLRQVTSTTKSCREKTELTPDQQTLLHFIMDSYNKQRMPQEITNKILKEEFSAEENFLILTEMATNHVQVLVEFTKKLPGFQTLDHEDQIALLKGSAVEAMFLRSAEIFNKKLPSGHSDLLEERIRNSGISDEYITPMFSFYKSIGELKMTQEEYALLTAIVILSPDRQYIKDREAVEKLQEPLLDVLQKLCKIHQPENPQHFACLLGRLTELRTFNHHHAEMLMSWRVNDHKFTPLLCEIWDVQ
Sequence of FXR:RXRa (P19793 whole entry, chain 2 of 2): as the sequence (P19793 whole entry, chain 2 of 2) above
How it was run: as §1

[4] = target: RARb:RXRa (Homo sapiens, UniProt P10826;P19793 full;full); assay: as above; details: tags: His kept;His cleaved; copies: 1;1; label: surface-attached array probe
Sequence of RARb:RXRa (P10826 whole entry, chain 1 of 2): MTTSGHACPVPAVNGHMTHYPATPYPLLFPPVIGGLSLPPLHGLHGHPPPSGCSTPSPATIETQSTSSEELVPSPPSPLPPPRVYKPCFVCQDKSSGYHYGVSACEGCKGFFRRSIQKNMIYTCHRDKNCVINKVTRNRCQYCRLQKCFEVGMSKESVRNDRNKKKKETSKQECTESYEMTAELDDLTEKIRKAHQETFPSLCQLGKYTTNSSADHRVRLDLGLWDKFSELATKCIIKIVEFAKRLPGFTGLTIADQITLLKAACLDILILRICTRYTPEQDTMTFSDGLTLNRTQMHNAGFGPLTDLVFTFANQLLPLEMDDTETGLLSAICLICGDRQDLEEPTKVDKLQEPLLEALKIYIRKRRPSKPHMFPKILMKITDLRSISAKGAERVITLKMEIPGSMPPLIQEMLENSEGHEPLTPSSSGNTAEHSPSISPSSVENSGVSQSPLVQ
Sequence of RARb:RXRa (P19793 whole entry, chain 2 of 2): as the sequence (P19793 whole entry, chain 2 of 2) above
How it was run: as §1

[5] = target: PPARa:RXRa (Homo sapiens, UniProt Q07869;P19793 full;full); assay: as above; details: tags: GST kept;His cleaved; copies: 1;1; label: surface-attached array probe
Sequence of PPARa:RXRa (Q07869 whole entry, chain 1 of 2): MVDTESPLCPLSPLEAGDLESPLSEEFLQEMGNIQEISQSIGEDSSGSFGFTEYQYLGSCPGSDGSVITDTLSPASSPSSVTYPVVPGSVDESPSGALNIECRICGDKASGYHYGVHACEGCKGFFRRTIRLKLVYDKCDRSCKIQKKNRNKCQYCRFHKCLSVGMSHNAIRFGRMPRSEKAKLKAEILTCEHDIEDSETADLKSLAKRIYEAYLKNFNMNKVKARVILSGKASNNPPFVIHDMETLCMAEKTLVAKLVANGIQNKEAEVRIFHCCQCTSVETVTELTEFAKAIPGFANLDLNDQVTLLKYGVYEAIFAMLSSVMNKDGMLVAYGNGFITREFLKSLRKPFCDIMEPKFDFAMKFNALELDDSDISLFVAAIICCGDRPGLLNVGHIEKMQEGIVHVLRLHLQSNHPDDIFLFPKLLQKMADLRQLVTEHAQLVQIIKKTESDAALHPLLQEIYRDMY
Sequence of PPARa:RXRa (P19793 whole entry, chain 2 of 2): as the sequence (P19793 whole entry, chain 2 of 2) above
How it was run: as §1

[6] = target: RXRa (Homo sapiens, UniProt P19793); assay: no ligand; PBM; 180 nM; PBS pH 7.4, 2% milk, 0.02% Triton X-100, 1 mM DTT, BSA, 0.4 mg/ml salmon testes DNA; details: tags: His cleaved; chain copies: 2; label: surface-attached array probe
Sequence of RXRa (P19793 whole entry): as the sequence (P19793 whole entry, chain 2 of 2) above

[7] = target: RARg:RXRa (Homo sapiens, UniProt P13631;P19793 full;full); assay: no ligand; PBM; 270 nM : 90 nM RXRa; PBS pH 7.4, 2% milk, 0.02% Triton X-100, 1 mM DTT, BSA, 0.4 mg/ml salmon testes DNA; details: tags: His kept;His cleaved; copies: 1;1; label: surface-attached array probe
Sequence of RARg:RXRa (P13631 whole entry, chain 1 of 2): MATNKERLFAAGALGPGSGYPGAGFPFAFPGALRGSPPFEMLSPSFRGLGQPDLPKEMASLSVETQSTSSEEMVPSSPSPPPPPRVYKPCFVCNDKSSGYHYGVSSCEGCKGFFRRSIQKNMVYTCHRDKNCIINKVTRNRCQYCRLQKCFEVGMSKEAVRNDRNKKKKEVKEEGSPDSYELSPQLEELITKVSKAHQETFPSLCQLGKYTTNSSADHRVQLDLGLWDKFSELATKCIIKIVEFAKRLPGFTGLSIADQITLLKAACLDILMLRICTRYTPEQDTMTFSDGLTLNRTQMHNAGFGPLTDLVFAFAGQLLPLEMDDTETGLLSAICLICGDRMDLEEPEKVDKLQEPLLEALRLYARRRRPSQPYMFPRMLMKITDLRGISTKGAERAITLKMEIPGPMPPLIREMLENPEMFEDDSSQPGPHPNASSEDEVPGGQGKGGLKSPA
Sequence of RARg:RXRa (P19793 whole entry, chain 2 of 2): as the sequence (P19793 whole entry, chain 2 of 2) above
How it was run: as §1

Sequence of VDR:RXRa (P11473 whole entry, chain 1 of 2): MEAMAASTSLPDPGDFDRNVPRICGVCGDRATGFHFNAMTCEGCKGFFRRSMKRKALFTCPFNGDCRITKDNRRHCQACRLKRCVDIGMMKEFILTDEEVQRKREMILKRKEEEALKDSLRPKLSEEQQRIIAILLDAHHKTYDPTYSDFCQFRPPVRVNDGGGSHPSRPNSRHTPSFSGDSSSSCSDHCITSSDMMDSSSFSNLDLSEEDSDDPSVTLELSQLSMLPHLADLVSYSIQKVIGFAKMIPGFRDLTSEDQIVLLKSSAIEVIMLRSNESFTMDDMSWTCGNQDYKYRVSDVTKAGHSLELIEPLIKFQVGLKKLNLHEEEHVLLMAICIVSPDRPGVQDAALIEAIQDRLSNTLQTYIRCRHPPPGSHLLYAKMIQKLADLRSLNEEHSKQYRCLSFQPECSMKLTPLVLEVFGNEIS
Sequence of VDR:RXRa (P19793 whole entry, chain 2 of 2): as the sequence (P19793 whole entry, chain 2 of 2) above

B1: NRC3_wobSeed21_DR0_C21T_o1 (dsDNA)
DNA 1: GCCGTCAAAGTTCAAGGTAATGTAACAGAAAGCAGCGCGATTGACAGCGTAGAATGAAGG
DNA 2: CCTTCATTCTACGCTGTCAATCGCGCTGCTTTCTGTTACATTACCTTGAACTTTGACGGC
- binding signal [1]: 3.72 PBM z-score against 500 random probes
- binding signal [2]: 3.22 PBM z-score against 500 random probes

B2: NRC3_random_hg19_100_o1 (dsDNA)
DNA 1: GCGAGTTTGAGACCAGCCTGGCCAACATGGCAAGAGGCGATTGACAGCGTAGAATGAAGG
DNA 2: CCTTCATTCTACGCTGTCAATCGCCTCTTGCCATGTTGGCCAGGCTGGTCTCAAACTCGC
- binding signal [2]: -1.11 PBM z-score against 500 random probes
- binding signal [3]: -0.7 PBM z-score against 500 random probes

B3: NRC3_random_hg19_43_o1 (dsDNA)
DNA 1: GCAGGACCTCTTCAAGGAGAACTACAAACCACTGCTGCGATTGACAGCGTAGAATGAAGG
DNA 2: CCTTCATTCTACGCTGTCAATCGCAGCAGTGGTTTGTAGTTCTCCTTGAAGAGGTCCTGC
- binding signal [4]: -0.5 PBM z-score against 500 random probes
- binding signal [5]: -0.17 PBM z-score against 500 random probes
- binding signal [2]: -0.03 PBM z-score against 500 random probes

B4: NRC3_random_hg19_348_o1 (dsDNA)
DNA 1: GCGGAGCAGTCTGCTTTCACGCAGCCTGCTGGGCACGCGATTGACAGCGTAGAATGAAGG
DNA 2: CCTTCATTCTACGCTGTCAATCGCGTGCCCAGCAGGCTGCGTGAAAGCAGACTGCTCCGC
- binding signal [4]: -2.02 PBM z-score against 500 random probes
- binding signal [2]: -1.82 PBM z-score against 500 random probes

B5: NRC3_random_hg19_201_o1 (dsDNA)
DNA 1: GCCAAGGCTACCAAAGCAGTTTCTGGGCATGCTGAGGCGATTGACAGCGTAGAATGAAGG
DNA 2: CCTTCATTCTACGCTGTCAATCGCCTCAGCATGCCCAGAAACTGCTTTGGTAGCCTTGGC
- binding signal [5]: -0.55 PBM z-score against 500 random probes
- binding signal [2]: -0.95 PBM z-score against 500 random probes

B6: NRC3_random_hg19_18_o1 (dsDNA)
DNA 1: GCATACACTTCTGGAGGCCAGAGGTCTGAAATCAAGGCGATTGACAGCGTAGAATGAAGG
DNA 2: CCTTCATTCTACGCTGTCAATCGCCTTGATTTCAGACCTCTGGCCTCCAGAAGTGTATGC
- binding signal [4]: 0.42 PBM z-score against 500 random probes
- binding signal [2]: -0.22 PBM z-score against 500 random probes

B7: NRC3_wobSeed29_DR1_T22A_o1 (dsDNA)
DNA 1: GCGCTTACGGGTCAAAGGTTAAAGCATGAATAGAATGCGATTGACAGCGTAGAATGAAGG
DNA 2: CCTTCATTCTACGCTGTCAATCGCATTCTATTCATGCTTTAACCTTTGACCCGTAAGCGC
- binding signal [6]: 10 PBM z-score against 500 random probes
- binding signal [2]: 6.19 PBM z-score against 500 random probes

B8: NRC3_wobSeed29_DR1_G17A_o1 (dsDNA)
DNA 1: GCGCTTACGGGTCAAAAGTTATAGCATGAATAGAATGCGATTGACAGCGTAGAATGAAGG
DNA 2: CCTTCATTCTACGCTGTCAATCGCATTCTATTCATGCTATAACTTTTGACCCGTAAGCGC
- binding signal [2]: 3.65 PBM z-score against 500 random probes
- binding signal [7]: 4.11 PBM z-score against 500 random probes

B9: NRC3_wobSeed27_DR1_G24A_o1 (dsDNA)
DNA 1: GCACTCGGAGGACAAAGGTCAGAACTACGCCAGTGAGCGATTGACAGCGTAGAATGAAGG
DNA 2: CCTTCATTCTACGCTGTCAATCGCTCACTGGCGTAGTTCTGACCTTTGTCCTCCGAGTGC
- binding signal [1]: 3.2 PBM z-score against 500 random probes
- binding signal [2]: 3.26 PBM z-score against 500 random probes

B10: NRC3_wobSeed98_DR4_C23A_o1 (dsDNA)
DNA 1: GCACTAGTTGGTCAGCTGAGGTAACACACAATTCGGGCGATTGACAGCGTAGAATGAAGG
DNA 2: CCTTCATTCTACGCTGTCAATCGCCCGAATTGTGTGTTACCTCAGCTGACCAACTAGTGC
- binding signal [6]: 0.48 PBM z-score against 500 random probes
- binding signal [2]: 0.34 PBM z-score against 500 random probes

B11: NRC3_random_hg19_110_o1 (dsDNA)
DNA 1: GCTGCTGATTCATAGCTTGTAACTTCGTGTTCTTTAGCGATTGACAGCGTAGAATGAAGG
DNA 2: CCTTCATTCTACGCTGTCAATCGCTAAAGAACACGAAGTTACAAGCTATGAATCAGCAGC
- binding signal [2]: -0.27 PBM z-score against 500 random probes
- binding signal [7]: -0.76 PBM z-score against 500 random probes

B12: NRC3_random_hg19_225_o1 (dsDNA)
DNA 1: GCTGGATGAAGTGGAAGAACAAGGCTATTCTTTACTGCGATTGACAGCGTAGAATGAAGG
DNA 2: CCTTCATTCTACGCTGTCAATCGCAGTAAAGAATAGCCTTGTTCTTCCACTTCATCCAGC
- binding signal [6]: -0.39 PBM z-score against 500 random probes
- binding signal [2]: -0.34 PBM z-score against 500 random probes
- binding signal [7]: 0.01 PBM z-score against 500 random probes

B13: NRC3_random_hg19_495_o1 (dsDNA)
DNA 1: GCGCACCATCTGTGAGAAAGTAGCCCTTCACCAAACGCGATTGACAGCGTAGAATGAAGG
DNA 2: CCTTCATTCTACGCTGTCAATCGCGTTTGGTGAAGGGCTACTTTCTCACAGATGGTGCGC
- binding signal [2]: -0.24 PBM z-score against 500 random probes
- binding signal [3]: -0.51 PBM z-score against 500 random probes

B14: NRC3_random_hg19_122_o1 (dsDNA)
DNA 1: GCTGGCAATGGCTGGACCACTCCAAGAACTGTGTGGGCGATTGACAGCGTAGAATGAAGG
DNA 2: CCTTCATTCTACGCTGTCAATCGCCCACACAGTTCTTGGAGTGGTCCAGCCATTGCCAGC
- binding signal [2]: -0.85 PBM z-score against 500 random probes

B15: NRC3_wobSeed74_DR3_T21G_o1 (dsDNA)
DNA 1: GCTCTAGTTGGTCACGGAGGGCACACACGACGGGTAGCGATTGACAGCGTAGAATGAAGG
DNA 2: CCTTCATTCTACGCTGTCAATCGCTACCCGTCGTGTGTGCCCTCCGTGACCAACTAGAGC
- binding signal [2]: 0.5 PBM z-score against 500 random probes
- binding signal [3]: 0.34 PBM z-score against 500 random probes

B16: NRC3_random_hg19_352_o1 (dsDNA)
DNA 1: GCGAGATGCAGCCAACCTGTAGAGATCCTGTGGAGAGCGATTGACAGCGTAGAATGAAGG
DNA 2: CCTTCATTCTACGCTGTCAATCGCTCTCCACAGGATCTCTACAGGTTGGCTGCATCTCGC
- binding signal [5]: -0.6 PBM z-score against 500 random probes
- binding signal [2]: -0.67 PBM z-score against 500 random probes
- binding signal [3]: -0.39 PBM z-score against 500 random probes
- binding signal [7]: -0.52 PBM z-score against 500 random probes

B17: NRC3_wobSeed130_DR5_T12G_o1 (dsDNA)
DNA 1: GCCTCGAAAGGGCGTGCTCAGGTGAGTATACCAAACGCGATTGACAGCGTAGAATGAAGG
DNA 2: CCTTCATTCTACGCTGTCAATCGCGTTTGGTATACTCACCTGAGCACGCCCTTTCGAGGC
- binding signal [6]: 0.33 PBM z-score against 500 random probes
- binding signal [2]: 0.29 PBM z-score against 500 random probes

B18: NRC3_random_hg19_262_o1 (dsDNA)
DNA 1: GCGACTAATGCTTACCTTTAGAAAGTGCAAGTGAATGCGATTGACAGCGTAGAATGAAGG
DNA 2: CCTTCATTCTACGCTGTCAATCGCATTCACTTGCACTTTCTAAAGGTAAGCATTAGTCGC
- binding signal [5]: 0.36 PBM z-score against 500 random probes
- binding signal [2]: 0.24 PBM z-score against 500 random probes
- binding signal [3]: 0.19 PBM z-score against 500 random probes

B19: NRC3_wobSeed45_DR1_A14T_o1 (dsDNA)
DNA 1: GCTGTCAAAGTTCTAAGGTAACGTAAGTATCCACACGCGATTGACAGCGTAGAATGAAGG
DNA 2: CCTTCATTCTACGCTGTCAATCGCGTGTGGATACTTACGTTACCTTAGAACTTTGACAGC
- binding signal [6]: 0.38 PBM z-score against 500 random probes
- binding signal [2]: 0.4 PBM z-score against 500 random probes
- binding signal [7]: 0.41 PBM z-score against 500 random probes

B20: NRC3_random_hg19_165_o1 (dsDNA)
DNA 1: GCTGAGTCCCTGCACTAGTCGGTTTGAGCTGCTTGTGCGATTGACAGCGTAGAATGAAGG
DNA 2: CCTTCATTCTACGCTGTCAATCGCACAAGCAGCTCAAACCGACTAGTGCAGGGACTCAGC
- binding signal [6]: -1.2 PBM z-score against 500 random probes
- binding signal [2]: -0.66 PBM z-score against 500 random probes

B21: NRC3_wobSeed10_DR0_G17T_o1 (dsDNA)
DNA 1: GCATCGAAAGGTCGAGTTGAGTATAGAGAAAGGGAAGCGATTGACAGCGTAGAATGAAGG
DNA 2: CCTTCATTCTACGCTGTCAATCGCTTCCCTTTCTCTATACTCAACTCGACCTTTCGATGC
- binding signal [6]: 4.1 PBM z-score against 500 random probes
- binding signal [2]: 3.11 PBM z-score against 500 random probes

B22: NRC3_random_hg19_151_o1 (dsDNA)
DNA 1: GCCCCAATCTACTAGAAACACTTCCTGGAGAACCCGGCGATTGACAGCGTAGAATGAAGG
DNA 2: CCTTCATTCTACGCTGTCAATCGCCGGGTTCTCCAGGAAGTGTTTCTAGTAGATTGGGGC
- binding signal [2]: 0.38 PBM z-score against 500 random probes
- binding signal [7]: -0.01 PBM z-score against 500 random probes

B23: NRC3_random_hg19_46_o1 (dsDNA)
DNA 1: GCAGTAATGCCAATGTCATGATGTGGTCCAGGAATGGCGATTGACAGCGTAGAATGAAGG
DNA 2: CCTTCATTCTACGCTGTCAATCGCCATTCCTGGACCACATCATGACATTGGCATTACTGC
- binding signal [2]: -0.76 PBM z-score against 500 random probes

B24: NRC3_wobSeed37_DR1_T23C_o1 (dsDNA)
DNA 1: GCCGTCCAAGGTCAAAGGTCAGCGAAGAGATGACGGGCGATTGACAGCGTAGAATGAAGG
DNA 2: CCTTCATTCTACGCTGTCAATCGCCCGTCATCTCTTCGCTGACCTTTGACCTTGGACGGC
- binding signal [4]: 6.23 PBM z-score against 500 random probes
- binding signal [2]: 7.14 PBM z-score against 500 random probes

B25: NRC3_random_hg19_182_o1 (dsDNA)
DNA 1: GCGCAGGAGACTCACTTGTGCATGCAGGGTTGAGGCGCGATTGACAGCGTAGAATGAAGG
DNA 2: CCTTCATTCTACGCTGTCAATCGCGCCTCAACCCTGCATGCACAAGTGAGTCTCCTGCGC
- binding signal [2]: -1.08 PBM z-score against 500 random probes
